Assay results from patent US20150306234.
Numbering of substitutions follows the chain as printed.

Experiments:
BDD FVIII mutein F2093C = tested on: T1, BDD FVIII mutein F2093C
T1 sequence: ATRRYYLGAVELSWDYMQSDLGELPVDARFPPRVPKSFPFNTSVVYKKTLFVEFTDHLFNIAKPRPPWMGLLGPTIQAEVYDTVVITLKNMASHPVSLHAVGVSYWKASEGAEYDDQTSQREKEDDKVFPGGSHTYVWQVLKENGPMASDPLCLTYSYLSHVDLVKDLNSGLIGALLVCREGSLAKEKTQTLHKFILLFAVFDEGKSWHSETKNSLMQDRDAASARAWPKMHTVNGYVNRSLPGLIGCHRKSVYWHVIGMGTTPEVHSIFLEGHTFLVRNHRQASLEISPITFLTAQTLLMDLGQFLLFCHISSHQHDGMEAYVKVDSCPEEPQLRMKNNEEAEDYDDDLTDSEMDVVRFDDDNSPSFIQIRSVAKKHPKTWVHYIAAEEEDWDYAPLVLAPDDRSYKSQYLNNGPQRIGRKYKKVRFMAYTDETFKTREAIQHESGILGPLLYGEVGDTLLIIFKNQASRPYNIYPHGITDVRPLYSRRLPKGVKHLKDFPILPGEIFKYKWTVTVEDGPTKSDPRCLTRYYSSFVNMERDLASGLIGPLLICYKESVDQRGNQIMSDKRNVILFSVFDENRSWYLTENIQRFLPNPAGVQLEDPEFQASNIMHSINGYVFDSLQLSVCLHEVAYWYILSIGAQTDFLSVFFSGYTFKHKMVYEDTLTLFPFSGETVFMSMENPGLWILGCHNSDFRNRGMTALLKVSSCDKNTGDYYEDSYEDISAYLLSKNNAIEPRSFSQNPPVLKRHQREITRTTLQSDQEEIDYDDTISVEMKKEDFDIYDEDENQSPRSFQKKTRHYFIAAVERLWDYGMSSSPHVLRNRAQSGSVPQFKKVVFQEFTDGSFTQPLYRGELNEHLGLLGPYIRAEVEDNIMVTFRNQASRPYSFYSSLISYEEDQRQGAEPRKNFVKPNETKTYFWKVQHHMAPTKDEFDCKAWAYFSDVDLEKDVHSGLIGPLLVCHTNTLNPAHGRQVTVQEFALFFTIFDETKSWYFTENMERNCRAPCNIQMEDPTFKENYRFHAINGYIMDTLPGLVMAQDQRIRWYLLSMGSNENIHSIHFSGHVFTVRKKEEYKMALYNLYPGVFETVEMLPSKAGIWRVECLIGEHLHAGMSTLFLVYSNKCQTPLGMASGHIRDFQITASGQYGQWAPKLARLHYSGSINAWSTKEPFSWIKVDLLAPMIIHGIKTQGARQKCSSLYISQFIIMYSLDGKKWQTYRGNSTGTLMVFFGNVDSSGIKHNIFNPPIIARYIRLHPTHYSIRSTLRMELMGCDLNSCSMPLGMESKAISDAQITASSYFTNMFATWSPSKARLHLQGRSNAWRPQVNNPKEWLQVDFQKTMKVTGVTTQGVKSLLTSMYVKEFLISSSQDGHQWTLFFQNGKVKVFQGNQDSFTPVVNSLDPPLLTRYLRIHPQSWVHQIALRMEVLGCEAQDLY

BDD FVIII mutein S2094C = tested on: T2, BDD FVIII mutein S2094C
T2 sequence: T1 sequence with C1199F, S1200C

thrombin (Haematologic Technologies, Essex Junction, Vt.)
thrombin cleavage, SDS-PAGE with silver staining (BDD FVIII mutein F2093C): Thrombin digestion of the muteins and control produced the expected cleavage fragments.
thrombin cleavage, SDS-PAGE with silver staining (BDD FVIII mutein S2094C): Thrombin digestion of the muteins and control produced the expected cleavage fragments.
